Reference: patent US20260045319A1 (UNIVERSITY COURT OF THE UNIVERSITY OF ST ANDREWS, published 2026)

Target: the molecule itself
Assay: size exclusion chromatography on a column calibrated with protein standards; self-association

B1: Dsg407 from Cyanophage Syn10 GenBank: AGH56623.1 (enzyme)
chain: MKIESVAIVGGGSSGWMTAAALSKLCPQLEIALIEDPNIKTVGVGESTLGHFNKFLHLLDLKDEDWMPACNATYKNSIRFTNFREGKGEVFEYPFGPSLDVSFFSQTDGINTWGKLANKYPEDFPPETFARFVNSNTYLAEHNRLTRNKDNKIPNFNFDWDTAYHIDAELFGQYLKEKIALPNGVKHIQGKVTGYQKESPNNHNFKYIILDQETAIFADLYIDCTGFKSLLLGEFMGEAFSPFSKKLANDKAMATRIPYENREEEMHNVTDCHAMKNGWVWNIPLWNRIGTGYCYSSRFVSKDDAEAEFREHLGERGKDAKIFHIDIGHGKRTRAWVNNCVGIGLSYGFIEPLESTGLLTTHENIENLVYLINQRDGYVTQAERDGFNYTCDHQIDSFSDFVAMHYAYSMRTDTPYWKWCTQMCNYMPESMGPHRQKQSTWQDLSTDTIGLNTWHINHNGISFIIAGHGLRPQSYDKLSEVLLKRNNESDYYYEDIRKDWLKHYESMVEYVKTLPTHYEFLRDEIYGSAE
notes: also called hypothetical protein CPUG_00131; viral halogenase Dsg407
- binding result: binds
